# Experimental data: doi:10.1101/2025.09.24.678203 (bioRxiv, 2025)
# T1: T. brucei canonical histone H2A (T. brucei brucei, UniProt Q57YA3 2-134)
# T1 construct: Canonical histone H2A of Trypanosoma brucei brucei, Tb927.7.2820, pET21a plasmid from the Janzen lab; also called Tb H2A
# T1 sequence: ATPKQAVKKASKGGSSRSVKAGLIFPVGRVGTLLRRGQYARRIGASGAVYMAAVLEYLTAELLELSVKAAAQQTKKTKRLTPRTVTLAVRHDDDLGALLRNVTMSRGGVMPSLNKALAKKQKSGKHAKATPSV
# B1: T. brucei canonical histone H2B (natural protein, T. brucei brucei)
# chain: ATPKSTPAKTRKEAKKTRRQRKRTWNVYVSRSLRSINSQMSMTSRTMKIVNSFVNDLFERIAAEAATIVRVNRKRTLGARELQTAVRLVLPADLAKHAMAEGTKAVSHASS
# notes: Canonical histone H2B of Trypanosoma brucei brucei, Tb927.10.10480, pET21a plasmid from the Janzen lab; also called Tb H2B
# B2: T. brucei canonical histone H4 (natural protein)
# chain: not shown
# notes: Canonical histone H4 of Trypanosoma brucei brucei, Tb927.5.4170, pET21a plasmid from the Janzen lab; also called Tb H4
# Tests used:
# [1] = target: T1, T. brucei canonical histone H2A; assay: cryo-EM structure; H3.V-H4.V NCP (H2A, H2B, H3.V, H4.V) wrapped with Widom 601 145 bp DNA, crosslinked with 0.05% glutaraldehyde, separated by SEC; grids in 10 mM Tris pH 8.0, 30 mM NaCl, 1 mM EDTA, 1 mM DTT; global resolution 3.2 Å; settings: both partners purified
# [2] = target: T2, T. brucei canonical histone H3 (T. brucei brucei, UniProt Q4GYX7 2-133); assay: in vitro reconstitution of histone octamers and nucleosomes (SEC, native PAGE, SDS-PAGE); purified histones combined at a 1.2:1.2:1:1 H2A:H2B:H3(V):H4(V) molar ratio, dialysed into 2 M NaCl Octamer Buffer, octamers purified on Superdex200; wrapped with Widom 601 145 bp, Widom 603 177 bp or Widom 603 193 bp DNA by salt gradient dialysis; checked by native and SDS PAGE; settings: both partners purified
# T2 construct: Canonical histone H3 of Trypanosoma brucei brucei, Tb927.1.2430, pET21a plasmid from the Janzen lab; also called Tb H3
Binder,binding result [1],binding result [2]
B1,binds,
B2,,binds
